Measurements reported in patent CN113521276A (JIANGSU QUANXIN BIOMEDICAL CO LTD, dated 2021).

Molecular target: T1, 人干扰素α受体1(IFNAR1) (human, UniProt P17181 28-436)
T1 construct: Soluble antigen run over captured antibody in the Biacore assay; also called 人IFNAR1; Human Interferon alpha/beta Receptor 1
T1 sequence: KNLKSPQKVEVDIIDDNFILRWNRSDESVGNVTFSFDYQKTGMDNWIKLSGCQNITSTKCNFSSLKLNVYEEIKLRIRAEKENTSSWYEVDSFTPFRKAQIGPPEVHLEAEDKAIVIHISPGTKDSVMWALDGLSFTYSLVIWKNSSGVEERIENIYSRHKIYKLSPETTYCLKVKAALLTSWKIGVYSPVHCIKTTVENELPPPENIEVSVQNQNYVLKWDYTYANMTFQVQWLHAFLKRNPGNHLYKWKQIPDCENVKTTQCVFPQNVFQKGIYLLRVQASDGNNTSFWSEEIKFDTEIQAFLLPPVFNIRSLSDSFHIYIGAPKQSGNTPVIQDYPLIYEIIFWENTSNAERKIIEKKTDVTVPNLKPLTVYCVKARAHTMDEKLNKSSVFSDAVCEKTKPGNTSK
Assay: SPR, Biacore T200, antibody captured on Protein A chip, antigen in solution, 25℃, 1:1 model, mean of three runs

B1: QX006N(HZD1203-45-IgG4.1) (antibody, V domains shown)
VH: EVQLVESGGGLVQPGGSLRLSCAASGFSLSSYYMTWVRQAPGKGLEWVSVINVYGGTYYASWAKGRFTISRDNSKNTLYLQMNSLRAEDTAVYYCAREDVAVYMAIDLWGQGTLVTVSS
VL: AIQMTQSPSSLSASVGDRVTITCQASQSISNQLSWYQQKPGKAPKLLIYDASSLASGVPSRFSGSRSGTKFTLTISSLQPEDFATYYCLGIYGDGADDGIAFGGGTKVEIK
notes: Humanised rabbit antibody from clone 1203#; also called 抗人干扰素α受体1(IFNAR1)单克隆抗体
Q: B1 was tested. Which Kd did it give?
A: 0.108 nM

Q: And the koff?
A: 3.76e-05 s⁻¹

Q: What about the kon of the same binder?
A: 347000 M⁻¹ s⁻¹
